Results as given in the Immune Epitope Database (IEDB).
Blank lines part the entries; values can stand above or below the sequence they belong to.

How the values were obtained:
HLA-A*68:02 = test: IEDB peptide-MHC binding, purified MHC/competitive/radioactivity; filed as Kd, often an IC50 or EC50 that approximates it; ≥ and ≤ were set here for values at or beyond the usual limits of such assays
HLA-B*57:01 = test: IEDB peptide-MHC binding, purified MHC/direct/fluorescence; filed as Kd, often an IC50 or EC50 that approximates it; ≥ and ≤ were set here for values at or beyond the usual limits of such assays
HLA-B*58:01 = test: as above
HLA-A*32:01 = test: IEDB peptide-MHC binding, purified MHC/competitive/radioactivity; filed as Kd, often an IC50 or EC50 that approximates it; ≥ and ≤ were set here for values at or beyond the usual limits of such assays
HLA-B*44:02 = test: as above
HLA-B*44:03 = test: as above
HLA-A*26:01 [1] = test: as above
HLA-B*40:01 = test: as above
HLA-A*01:01 = test: as above
HLA-A*23:01 = test: as above
HLA-A*24:02 = test: as above
HLA-A*29:02 = test: as above
HLA-A*30:01 = test: as above
HLA-A*30:02 = test: as above
HLA-B*15:01 [2] = test: IEDB peptide-MHC binding, purified MHC/competitive/fluorescence; filed as Kd, often an IC50 or EC50 that approximates it; ≥ and ≤ were set here for values at or beyond the usual limits of such assays; conditions: source organism: Human immunodeficiency virus 1
HLA-A*02:01 [3] = test: IEDB peptide-MHC binding, purified MHC/competitive/radioactivity; filed as Kd, often an IC50 or EC50 that approximates it; ≥ and ≤ were set here for values at or beyond the usual limits of such assays
HLA-A*02:02 = test: as above
HLA-A*02:03 = test: as above
HLA-A*02:06 = test: as above
HLA-A*11:01 = test: IEDB peptide-MHC binding, purified MHC/direct/fluorescence; filed as Kd, often an IC50 or EC50 that approximates it; ≥ and ≤ were set here for values at or beyond the usual limits of such assays; conditions: source organism: SARS-CoV1
HLA-A*26:01 [4] = test: as above
HLA-B*15:01 [5] = test: as above; conditions: source organism: SARS-CoV1
HLA-B*27:05 = test: as above; conditions: source organism: SARS-CoV1
HLA-B*39:01 = test: IEDB peptide-MHC binding, purified MHC/competitive/fluorescence; filed as Kd, often an IC50 or EC50 that approximates it; ≥ and ≤ were set here for values at or beyond the usual limits of such assays; conditions: source organism: Escherichia coli
HLA-A*02:01 [6] = test: as above; conditions: source organism: Variola major virus
[7] = source organism: Dengue virus 2 Jamaica/1409/1983
[8] = source organism: Vibrio vulnificus YJ016
[9] = source organism: Dengue virus 4 Dominica/814669/1981
[10] = source organism: Vaccinia virus WR
[11] = source organism: Dengue virus 1 Brazil/97-11/1997
[12] = source organism: Dengue virus 3 Martinique/1243/1999
[13] = source organism: Dengue virus 4 Philippines/H241/1956
[14] = source organism: Mammarenavirus juninense
[15] = source organism: Mammarenavirus guanaritoense
[16] = source organism: Orthohantavirus dobravaense
[17] = source organism: Trypanosoma cruzi
[18] = source organism: Hepatitis C virus (isolate BK)
[19] = source organism: SARS coronavirus Tor2

Sequence: MAVGMVSILA
Kd (HLA-A*68:02; [7]): 3.29 nM

Sequence: WMSPTYQSW
Kd (HLA-B*57:01; [8]): 62.4 nM
Kd (HLA-B*58:01; [8]): 8.3 nM

Sequence: RLENVMWKQI
Kd (HLA-A*32:01; [9]): 1840 nM

Sequence: IILVIIVVI
Kd (HLA-A*32:01; [10]): 415 nM

Sequence: GEKALKLSWF
Kd (HLA-B*44:02; [11]): 373 nM
Kd (HLA-B*44:03; [11]): 135 nM

Sequence: SEIPNLDIIG
Kd (HLA-B*44:03; [7]): 1090 nM

Sequence: LFSGVSWVMK
Kd (HLA-A*32:01; [12]): 10100 nM

Sequence: EENMEVEIW
Kd (HLA-B*44:02; [13]): 23.4 nM
Kd (HLA-B*44:03; [13]): 81.5 nM

Sequence: ESITLATGPL
Kd (HLA-A*26:01 [1]; [11]): 1990 nM
Kd (HLA-A*68:02; [11]): 101 nM

Sequence: AEAIFKLTYQ
Kd (HLA-B*40:01; [7]): 1430 nM
Kd (HLA-B*44:02; [7]): 200 nM
Kd (HLA-B*44:03; [7]): 267 nM

Sequence: VSGKLIHEW
Kd (HLA-B*57:01; source organism: dengue virus type 3): 43.5 nM

Sequence: LCLSGDGWPY
Kd (HLA-A*01:01; [14]): 1030 nM
Kd (HLA-A*23:01; [14]): ≥ 70000 nM
Kd (HLA-A*24:02; [14]): ≥ 70300 nM
Kd (HLA-A*26:01 [1]; [14]): ≥ 69700 nM
Kd (HLA-A*29:02; [14]): 148 nM
Kd (HLA-A*30:01; [14]): ≥ 55600 nM
Kd (HLA-A*30:02; [14]): 1460 nM
Kd (HLA-A*32:01; [14]): 16900 nM

Kd (HLA-A*68:02; source organism: Homo sapiens): ≥ 60000 nM
Sequence: NMALKKIREL

Sequence: LVGKLNWASQIY
Kd (HLA-B*15:01 [2]): 2210 nM

Sequence: LEPPFGDSYI
Kd (HLA-B*40:01; [13]): 6420 nM

Sequence: AGADTSEVHW
Kd (HLA-B*44:02; [13]): 4920 nM

Sequence: DTAWDFGSV
Kd (HLA-A*26:01 [1]; [12]): 172 nM
Kd (HLA-A*68:02; [12]): 1.5 nM

Sequence: ILNFVAHVY
Kd (HLA-A*01:01; [15]): 7940 nM
Kd (HLA-A*26:01 [1]; [15]): 12000 nM
Kd (HLA-A*29:02; [15]): 1.24 nM
Kd (HLA-A*30:01; [15]): 3140 nM
Kd (HLA-A*30:02; [15]): 0.522 nM
Kd (HLA-A*32:01; [15]): 939 nM

Sequence: MTMKMMVHI
Kd (HLA-A*32:01; [10]): 4.75 nM

Sequence: ITIAVASGL
Kd (HLA-A*68:02; [9]): 31.1 nM

Sequence: KALIATATW
Kd (HLA-B*57:01; [16]): 25.3 nM
Kd (HLA-B*58:01; [16]): 12.5 nM

Sequence: QWFLDLPLPW
Kd (HLA-A*23:01; [7]): 11.7 nM
Kd (HLA-A*24:02; [7]): 115 nM
Kd (HLA-B*44:03; [7]): 2780 nM

Sequence: SIYGFGVTF
Kd (HLA-A*32:01; [10]): 0.113 nM

Sequence: DVSRPTTVM
Kd (HLA-A*02:01 [3]; [17]): ≥ 69400 nM
Kd (HLA-A*02:02; [17]): ≥ 33600 nM
Kd (HLA-A*02:03; [17]): 15400 nM
Kd (HLA-A*02:06; [17]): 15000 nM
Kd (HLA-A*68:02; [17]): 1010 nM

Sequence: AAGLQDCTM
Kd (HLA-A*02:01 [3]; source organism: Hepatitis C virus (isolate 1)): ≥ 50000 nM

Sequence: VLTDFKTWL
Kd (HLA-A*02:01 [3]; [18]): 4.06 nM
Kd (HLA-A*02:02; [18]): 1.56 nM
Kd (HLA-A*02:03; [18]): 7.3 nM
Kd (HLA-A*02:06; [18]): 140 nM
Kd (HLA-A*68:02; [18]): 2300 nM

Sequence: TLMNVITLV
Kd (HLA-A*11:01): ≥ 26900 nM
Kd (HLA-A*26:01 [4]; source organism: SARS-CoV1): 1120 nM
Kd (HLA-B*15:01 [5]): 6120 nM
Kd (HLA-B*27:05): 10100 nM
Kd (HLA-A*02:02; [19]): 0.34 nM
Kd (HLA-A*02:03; [19]): 0.251 nM
Kd (HLA-A*02:06; [19]): 0.697 nM

Sequence: WRFQGSWNTG
Kd (HLA-A*32:01; [11]): ≥ 49000 nM

Sequence: KEKVVGRII
Kd (HLA-B*40:01; [13]): 2860 nM

Sequence: EVAETQHGTV
Kd (HLA-A*68:02; [11]): 1.53 nM

Kd (HLA-B*39:01): 824 nM
Sequence: ENARLRALL

Sequence: AMHDKKIDIL
Kd (HLA-A*02:01 [6]): 222 nM
Kd (HLA-A*02:02; [10]): 387 nM
Kd (HLA-A*02:03; [10]): 1180 nM
Kd (HLA-A*02:06; [10]): ≥ 69800 nM

Sequence: ETPQGLAKI
Kd (HLA-A*26:01 [4]; source organism: West Nile virus): 5560 nM

Sequence: VEDYGFGIF
Kd (HLA-B*40:01; [11]): 388 nM

Sequence: HIIIVALTI
Kd (HLA-A*32:01; [10]): 78.8 nM

Sequence: VEMGEAAAI
Kd (HLA-B*40:01; [13]): 134 nM
Kd (HLA-B*44:02; [13]): 12.9 nM
Kd (HLA-B*44:03; [13]): 27.7 nM

Sequence: KTPVESWEEI
Kd (HLA-A*32:01; source organism: Dengue virus 2 Peru/IQT2913/1996): 1610 nM
